In test [1] the target is human CD137 expressed on cells (human, UniProt Q07011 24-255). The test is described as follows: cell-based or functional assay.
The next test deals with T1, human OX40 (human, UniProt P43489 29-216).
T1 sequence (looked up): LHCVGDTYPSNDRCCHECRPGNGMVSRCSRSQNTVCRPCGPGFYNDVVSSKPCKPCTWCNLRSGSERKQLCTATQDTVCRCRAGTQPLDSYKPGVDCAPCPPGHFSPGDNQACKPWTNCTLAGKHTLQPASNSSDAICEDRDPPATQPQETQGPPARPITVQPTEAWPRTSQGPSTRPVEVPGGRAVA
The test is described as follows: SPR, receptor amine-coupled ~1000 RU. The method, then:
(§1) The specificity of the anti-human CD137 Fcabs for human CD137 compared to other related TNFSFR family members was tested. 8 of the Fcabs were tested in mock mAb^2 (HelD1.3) format and measured by SPR in a Biacore T200 (GE Healthcare) by testing for binding to other human TNFRSF receptors: CD40, OX40 and GITR. Amine coupling (amine coupling kit, GE Healthcare, BR-1000-50) was used to coat human CD40, GITR and OX40 to approximately 1000 RU in Biacore CM5 chips (GE Healthcare, cat no 29149603). […] The chip was regenerated by injection of 10 mM glycine pH 2.5 for 12 s at 30 µl/min. Antibodies specific to the different TNFRSF members were used as positive controls to verify Biacore chip coating. Data was double reference subtracted and analysed using BIAevaluation 3.2 software.
(In general: SPR reads the build-up and loss of mass on a sensor chip optically.)

The next test addresses T2, human GITR (human, UniProt Q9Y5U5 26-161, limits assumed).
T2 sequence (looked up): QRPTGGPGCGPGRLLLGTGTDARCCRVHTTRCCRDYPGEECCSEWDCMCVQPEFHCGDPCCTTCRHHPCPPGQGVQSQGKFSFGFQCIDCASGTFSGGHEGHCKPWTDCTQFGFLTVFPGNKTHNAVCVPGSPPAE
The test is described as follows: SPR, receptor amine-coupled ~1000 RU. As to the method: as §1

Another test deals with human CD40 (human, UniProt P25942 21-193). The test is described as follows: SPR, receptor amine-coupled ~1000 RU. As to the method:
as §1

The next test has as its target T3, cCD137-mFc-Avi (cynomolgus; mouse, one biotin on each Avi tag in the biotinylated form).
T3 construct: also called cynomolgus dimeric CD137; cyno CD137-mFc-Avi
T3 chain: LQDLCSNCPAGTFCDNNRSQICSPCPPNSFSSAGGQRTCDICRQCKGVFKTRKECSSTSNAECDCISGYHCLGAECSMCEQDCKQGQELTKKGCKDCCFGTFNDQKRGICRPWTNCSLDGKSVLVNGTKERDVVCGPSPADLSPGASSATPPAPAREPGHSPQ
The test is described as follows: SPR, mAb2 captured by anti-human Fab, antigen in solution. As to the method:
(§2) Each mAb^2 was captured to approximately 150 RU by injecting a 3 µg/ml solution of mAb^2 diluted in HBS-EP+buffer (GE Healthcare #BR1006-69) for 60 seconds at 30 µl/min. Then different concentrations of human, cyno or mouse CD137 antigen (unbiotinylated human, cyno or mouse CD137-mFc-Avi or human CD137-Avi-His) in HBS-EP+buffer were flowed over the chip for 3 min at 60 µl/min and then allowed to dissociate for 10 minutes. After each antigen concentration the chip was regenerated by injecting 10 mM glycine pH 2.1 at a flow rate of 30 µl/min for 30 seconds. Buffer HBS-EP+ was injected before the highest concentration of antigen and after the lowest concentration of antigen for reference subtraction, and one of the concentrations at random was repeated twice. The binding kinetics were fit with a 1:1 Langmuir model to generate equilibrium binding constants (K_D) for each sample. Data analysis was performed with BiaEvaluation software version 3.2.

For a further test, the target named is T4, hCD137-mFc-Avi (human; mouse, UniProt Q07011 24-186, one biotin on each Avi tag in the biotinylated form).
T4 construct: also called human dimeric CD137; human CD137-mFc-Avi
T4 sequence (Q07011 24-186): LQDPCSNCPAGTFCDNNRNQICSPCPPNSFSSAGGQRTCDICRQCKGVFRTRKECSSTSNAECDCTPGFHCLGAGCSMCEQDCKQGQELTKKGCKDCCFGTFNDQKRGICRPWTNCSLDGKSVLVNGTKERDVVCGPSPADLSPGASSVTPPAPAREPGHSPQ
The description is as above. As to the method: as §2

Another test addresses T5, hCD137-Avi-His (human, UniProt Q07011 24-186, single biotin on the Avi tag in the biotinylated form).
T5 construct: Monomer; also called human monomeric CD137; human CD137-Avi-His
The test is described as above. As to the method: as §2

This is an account of results in patent publication US12319739 (F STAR DELTA, dated 2025).

Broadly, the Kd is the concentration at which binding is half-saturated. Higher therefore signals weaker binding.

Sequence of human CD40 (P25942 21-193 limits assumed): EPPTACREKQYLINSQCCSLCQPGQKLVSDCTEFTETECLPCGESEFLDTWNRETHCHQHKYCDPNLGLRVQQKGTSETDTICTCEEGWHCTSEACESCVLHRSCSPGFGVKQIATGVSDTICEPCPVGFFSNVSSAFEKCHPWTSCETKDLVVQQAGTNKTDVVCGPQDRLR
T5 sequence (Q07011 24-186): as the sequence (Q07011 24-186) above
Sequence of human CD137 expressed on cells (Q07011 24-255): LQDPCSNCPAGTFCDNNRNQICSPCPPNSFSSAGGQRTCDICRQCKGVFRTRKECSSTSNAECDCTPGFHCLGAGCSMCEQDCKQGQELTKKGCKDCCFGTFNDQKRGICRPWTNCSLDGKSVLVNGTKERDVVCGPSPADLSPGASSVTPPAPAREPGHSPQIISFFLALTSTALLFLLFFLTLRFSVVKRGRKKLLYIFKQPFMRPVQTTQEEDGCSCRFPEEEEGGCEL

B1: FS22-172-003/HelD1.3 (bispecific antibody, human IgG1, kappa, L234A L235A)
heavy: QVQLQESGPGLVRPSQTLSLTCTVSGSTFSGYGVNWVRQPPGRGLEWIGMIWGDGNTDYNSALKSRVTMLVDTSKNQFSLRLSSVTAADTAVYYCARERDYRLDYWGQGSLVTVSSASTKGPSVFPLAPSSKSTSGGTAALGCLVKDYFPEPVTVSWNSGALTSGVHTFPAVLQSSGLYSLSSVVTVPSSSLGTQTYICNVNHKPSNTKVDKKVEPKSCDKTHTCPPCPAPEAAGGPSVFLFPPKPKDTLMISRTPEVTCVVVDVSHEDPEVKFNWYVDGVEVHNAKTKPREEQYNSTYRVVSVLTVLHQDWLNGKEYKCKVSNKALPAPIEKTISKAKGQPREPQVYTLPPSRDELPYIIPPYNQVSLTCLVKGFYPSDIAVEWESNGQPENNYKTTPPVLDSDGSFFLYSKLTVGADRWLEGNVFSCSVMHEALHNHYTQKSLSLSPG
light: DIQMTQSPASLSASVGETVTITCRASGNIHNYLAWYQQKQGKSPQLLVYNAKTLADGVPSRFSGSGSGTQYSLKINSLQPEDFGSYYCQHFWSTPRTFGGGTKLEIKRTVAAPSVFIFPPSDEQLKSGTASVVCLLNNFYPREAKVQWKVDNALQSGNSQESVTEQDSKDSTYSLSSTLTLSKADYEKHKVYACEVTHQGLSSPVTKSFNRGEC
notes: IgG1
As to B1, in test [1], the “NF-κB luciferase reporter EC50, HEK.FRT.luc.hCD137 cells, crosslinked with Protein L (+XL)” value was 32.6 nM. The binding result in the test with human OX40, in the test with human GITR and with human CD40 was “no binding (tested: 1 µM)” throughout. Besides, the Kd with cCD137-mFc-Avi turned out to be 1.3 nM; with hCD137-mFc-Avi it was 1.5 nM. For the same molecule, the “human monomeric CD137 KD fold difference relative to human dimeric KD” value with hCD137-Avi-His is > 200 fold.
